The values that follow come from US20110250613A1, “Arrayed Multiple Ubiquitin Binding Domains as Linkage-specific Polyubiquitin Affinity Reagents” (THE JOHNS HOPKINS UNIVERSITY, priority 2009, published 2011).

The target of data set [1] is T1, K63-Ub2 (Homo sapiens, UniProt P0CG47, K63R).
T1 construct: Ub and K48- and K63-linked diUb and tetraUb were made as described; made in house
The data set can be described thus: Fluorescence anisotropy binding of fluorescent tUIM peptides to K63-Ub2. The note with it: for Kd: fluorescence anisotropy, single-site fit, 25° C., pH 7.4. The text has this: (§1) Fluorescent Labeling. Rap80 tUIM peptides were fluorescently-labeled on the sulfhydryl group of C121 (see FIG. 1). For longer Rap80 constructs, all cysteines except C121 were mutated to serine for site-specific labeling. Ataxin-3 and Vps27 UIM peptides were labeled on a single cysteine introduced at the C-terminus. Fluorescein-5-maleimide (Pierce) was coupled to cysteines following the manufacturer's instructions. After desalting through Sephadex G-25 resin, fluorescein-labeled tUIM peptides were separated from unlabeled peptides by anion-exchange chromatography (MonoQ column, GE Biosciences) by elution with a NaCl gradient in 50 mM Tris buffer, pH 7.9. The labeled peptides were essentially 100% pure by SDS-PAGE and Coomassie blue staining, and MALDI-TOF mass spectrometry confirmed the addition of a single fluorescein moiety. Fluorescence Anisotropy Binding Assays. Fluorescence anisotropy measurements were made using a Fluoromax 4 fluorometer in L format, thermostatted at 25° C. Excitation and emission monochromators were set at 492 nm and 520 nm, respectively. Slit widths were 3 nm for diUb-binding assays ([…]) or 6 nm for tetraUb-binding assays ([…]). Anisotropies were calculated by the instrument software, and the overall intensity of the fluorescence signal was monitored at each point with the polarizers oriented at the magic angle. All measurements were made in fluorescence buffer (25 mM Na phosphate [pH 7.4], 150 mM NaCl, 5 mM β-mercaptoethanol, 1 mM EDTA, and either 0.005% surfactant P20 (BIACORE) or 0.05% Brij35). Concentrations of the fluorescent proteins were calculated using the fluorescein extinction coefficient at 494 nm, 68000 M^-1 cm^-1. (poly)Ub concentrations were assessed by absorbance at 280 nm using the extinction coefficient 0.16 (mg/ml)^-1 cm^-1 ([…] and Raasi, 2005). Fluorescence anisotropy data were fit with a single-site binding model as described (Wilkinson, 2004). The equilibrium constants for wild-type Vps27 peptide binding to K63 and K48 Ub4 were determined by competition with the fluorescent Vps27 7aa linker peptide as described (Wilkinson, 2004).

In data set [2] the test system is K63-Ub2. The data set is described as above.
Excerpt: as §1

The next data set deals with K48-Ub4. The data set can be described thus: Fluorescence anisotropy binding of fluorescent tUIM peptides to K48-Ub4.
Excerpt: as §1

The nature of data set [3]: CD measurements of helical content of tUIM peptides. The note with it: whole-spectrum interpretation of CD; peptide without vector-derived residues. It is filed as physicochemical. How it is done: Measurements of 3 samples were collected and are shown in FIG. 2D: (1) 153 μM Rap80 tUIM alone, (2) 153 μM K63-Ub2 alone, and (3) a mixture of 153 μM Rap80 tUIM with 153 μM K63-Ub2. The contribution of Rap80 tUIM to spectrum (3) was sought, so that the helical content of the bound tUIM could be estimated. […] Therefore, the difference between spectrum (3) and spectrum (2) will give the contribution from Rap80 tUIM to the total CD spectrum of the Rap80-K63-Ub2 mixture. (A) The spectrum of unbound Rap80 [spectrum (1)] is shown here as triangles. The contribution of Rap80 to spectrum (3) was calculated as (3)−(2), and is shown here as squares. Because the mixture of Rap80 with K63-Ub2 is not at saturating concentrations, bound and unbound Rap80 are both present in the solution. The observed helical fraction (Hmix) for this complex mixture can be described by:
Where Fbound and Funbound are the fractions of the bound and unbound forms of Rap80 present in the mixture, respectively, and Hbound and Hunbound are the helical contents of the bound and unbound forms of Rap80, respectively. […] (B) Shown here is a summary of the secondary structure predictions from two methods and the corresponding Hbound values calculated as described above. […]
CD Measurements. […] Peptide concentrations were independently determined before each CD reading from absorbance measurements (fluorescein) of samples in the CD cuvette.

A further data set deals with T2, K48-Ub2 (Homo sapiens, UniProt P0CG47, K48R).
T2 construct: Ub and K48- and K63-linked diUb and tetraUb were made as described; made in house
The data set can be described thus: Fluorescence anisotropy binding of fluorescent tUIM peptides to K48-Ub2. To be noted: single-site fit, 25° C., pH 7.4.

Data set [4] deals with K63-Ub4. Put plainly: Fluorescence anisotropy binding of fluorescent tUIM peptides to K63-Ub4.
Excerpt: as §1

The target of data set [5] is T3, K63-Ub4 (Homo sapiens, UniProt P0CG47, K63R).
T3 construct: Ub and K48- and K63-linked diUb and tetraUb were made as described; made in house
The description is as above.
Excerpt: as §1

[6] abbreviates: fluorescence anisotropy Kd values.
Where [7] appears, read: fluorescence anisotropy, single-site fit, 25° C., pH 7.4.
Setting [8] is: determined by competition with the fluorescent Vps27 7aa linker peptide.

Substitutions are numbered along the chain they refer to. Numbers in names are those of the source.

Experimental for K48-Ub2: Fluorescence Anisotropy Binding Assays. Fluorescence anisotropy measurements were made using a Fluoromax 4 fluorometer in L format, thermostatted at 25° C. Excitation and emission monochromators were set at 492 nm and 520 nm, respectively. Slit widths were 3 nm for diUb-binding assays (1 mM fluorophore) or 6 nm for tetraUb-binding assays (0.1 mM fluorophore). Anisotropies were calculated by the instrument software, and the overall intensity of the fluorescence signal was monitored at each point with the polarizers oriented at the magic angle. All measurements were made in fluorescence buffer (25 mM Na phosphate [pH 7.4], 150 mM NaCl, 5 mM β-mercaptoethanol, 1 mM EDTA, and either 0.005% surfactant P20 (BIACORE) or 0.05% Brij35). Concentrations of the fluorescent proteins were calculated using the fluorescein extinction coefficient at 494 nm, 68000 M^-1 cm^-1. (poly)Ub concentrations were assessed by absorbance at 280 nm using the extinction coefficient 0.16 (mg/ml)^-1 cm^-1 ([…] and Raasi, 2005). Fluorescence anisotropy data were fit with a single-site binding model as described (Wilkinson, 2004).

B1: Rap80 (WT): His6-tagged human Rap80 tandem UIM peptide, linker REVNSQE, fluorescein-labeled on C121; sequence in Table 1 (protein)
peptide: PSSHHHHHHSSGLVPRGSHMTEEEQFALALKMSEQEAREVNSQEEEEEELLRKAIAESLNSC(fluorescein)RPS
With B1, the Kd with K63-Ub2 [1] came out at 21.6 ± 0.8 µM. The “preference for K63-Ub2 over monoUb” value in the data set with K63-Ub2 [2] (setting [6]) came to 24 fold. Besides, the “preference for K63-Ub2 over K48-Ub2” value with K63-Ub2 [2] (from Kd values) came out at 7 fold. In addition, in the data set on K48-Ub4 (setting [6]), the “bound K48-Ub4 tighter than K48-Ub2” value is reported as “more than 11 times”. In data set [3], the “α-helical content, K63-Ub2-bound form” value is given as about 100% and the “α-helical content, unbound form” value is reported as 30%-35%.

B2: Rap80 7A linker: Rap80 UIMs linked by 7 alanine residues (protein)
peptide: PSSHHHHHHSSGLVPRGSHMTEEEQFALALKMSEQEAAAAAAAAEEEEELLRKAIAESLNSCRPS
On to B2, for which, in the data set with K63-Ub2 [1] (Table 2 Kd values), the “binds K63-Ub2 more tightly than Rap80 with the wild-type linker” value is on record as 6 fold. The Kd with K63-Ub2 [1] was 3.6 µM; in the data set with K48-Ub2, 160 µM.

B3: Rap80 DLKAAIQ: Rap80 tUIM peptide, linker DLKAAIQ (protein)
peptide: B2 peptide with A38D, A39L, A40K, A43I, A44Q
For B3, the Kd with K63-Ub2 [1] is 10 µM; in the data set with K48-Ub2 it was 129 ± 5 µM.

B4: unlabeled Rap80 tUIM peptide: unlabeled version of the fluorescent Rap80 tUIM peptide (protein)
peptide: B2 peptide with A38R, A39E, A40V, A41N, A42S, A43Q, A44E
For the molecule B4, in the data set with K63-Ub2 [1] (unlabeled peptide titrated against fluorescent Rap80 tUIM peptide at saturating K63-Ub2, read-out: Ki for the binding inhibition), the Ki turned out to be 24 µM.

B5: Rap80 S101E: Rap80 tUIM peptide, linker REVNEQE (protein)
peptide: B2 peptide with A38R, A39E, A40V, A41N, A42E, A43Q, A44E
B5: the Kd in the data set with K63-Ub2 [1] was determined as 16 µM; with K48-Ub2, 170 ± 5 µM.

B6: Rap80 ARLEEKV: Rap80 tUIM peptide, linker ARLEEKV (protein)
peptide: B2 peptide with A39R, A40L, A41E, A42E, A43K, A44V
On to B6, for which the figures for the Kd with K63-Ub2 [1] and with K48-Ub2 were 17 µM and 230 µM, respectively.

B7: Rap80 S101A: Rap80 tUIM peptide, linker REVNAQE (protein)
peptide: B2 peptide with A38R, A39E, A40V, A41N, A43Q, A44E
With B7, the Kd with K63-Ub2 [1] was 11 µM; in the data set with K48-Ub2 it was 152 ± 6 µM.

B8: Rap80 2 x linker: Rap80 tUIM peptide with 14-residue linker REVNSQEREVNSQE (protein)
peptide: PSSHHHHHHSSGLVPRGSHMTEEEQFALALKMSEQEAREVNSQEREVNSQEEEEEELLRKAIAESLNSCRPS
On to B8, for which the values for the Kd with K63-Ub2 [1] and with K48-Ub2 were 150 µM and 170 µM, respectively.

B9: Rap80 (residues 1-233): N-terminal 233 residues of Rap80, fluorescently labeled on the same UIM cysteine (protein)
chain: MPRRKKKVKEVSESRNLEKKDVETTSSVSVKRKRRLEDAFIVISDSDGEEPKEENGLQKTKTKQSNRAKSLAKRKIAQMTEEEQFALALKMSEQEAREVNSQEEEEEELLRKAIAESLNSCRPSDASATRSRPLATGPSSQSHQEKTTDSGLTEGIWQLVPPSLFKGSHISQGNEAEEREEPWDHTEKTEEEPVSGSSGSWDQSSQPVFENVNVKSFDRSTGHSAEHTQSGKP
B9: the “preference for K63-Ub4 over K48-Ub4” value in the data set on K63-Ub4 [4] (solution fluorescence anisotropy) is given as 7 fold.

B10: Vps27 7aa linker: Vps27 UIMs connected with 7-residue linker RAEEKVK (protein)
peptide: PSSHHHHHHSSGLVPRGSHMEEEEDPDLKAAIQESLREARAEEKVKEDEEELIRKAIELSLKESRNCA
As to B10, the Kd was 2.2 µM in the data set with K63-Ub2 [1], 98 µM with K48-Ub2, 0.62 µM in the data set with K63-Ub4 [5] (setting [7]) and 6.5 µM on K48-Ub4 (setting [7]).

B11: Rap80 6aa linker: Rap80 tUIM peptide with 6-residue linker REVAAE (protein)
peptide: PSSHHHHHHSSGLVPRGSHMTEEEQFALALKMSEQEAREVAAEEEEEELLRKAIAESLNSCRPS
B11: the Kd in the data set with K63-Ub2 [1] was found to be 87 µM; with K48-Ub2 it was 160 µM.

B12: Vps27 (WT): yeast Vps27 tandem UIM peptide with unstructured 25-residue linker (protein)
peptide: PSSHHHHHHSSGLVPRGSHMDRDYSTPEDEEELIRKAIELSLKESRNSASSEPIVPVVESKNEVKRQEIEEEEDPDLKAAIQESLREAEEAKLRSERQKAC
For the molecule B12, the Kd with K63-Ub2 [1] is 67 µM; in the data set with K48-Ub2, 211 µM; in the data set with K63-Ub4 [5] (setting [8]), 29 µM; on K48-Ub4 (setting [8]), 31 µM. Further, in the data set on K63-Ub4 [4] (fluorescence anisotropy), the “binding of K63-Ub4 versus K48-Ub4” value is on record as “indistinguishably”.

B13: ataxin-3 Rap80 linker: ataxin-3 UIMs spliced together with the Rap80 linker REVNSQE (protein)
peptide: PSSHHHHHHSSGLVPRGSHMDEDEEDLQRALALSRQEIREVNSQEEDEEADLRRAIQLSMQGSSRNC
For the molecule B13, the Kd with K63-Ub2 [1] turned out to be 60 µM; in the data set with K48-Ub2, 160 µM; with K63-Ub4 [5] (setting [7]), 11 µM; on K48-Ub4 (setting [7]), 7.8 µM.

B14: ataxin-3 7A linker: ataxin-3 UIMs joined by a 7-alanine linker (protein)
peptide: B13 peptide with R39A, E40A, V41A, N42A, S43A, Q44A, E45A
Take B14: the equilibrium dissociation constant (Kd) in the data set with K63-Ub2 [1] was 17 µM; with K48-Ub2, 140 µM; at K48-Ub4 (setting [7]), 9.3 µM.
